Measured values as given in patent publication US8871909B2, “Antibodies inhibiting c-Met dimerization and uses thereof” (Pierre Fabre Medicament, priority 2007, dated 2014).
One block for each molecule: values may come before it.

What was measured:
c-Met = target: T1, c-Met (Homo sapiens, UniProt P08581); experiment: Phospho c-Met ELISA assay on A549 cells; type: cell-based; conditions: purified Mabs; for IC50, c-Met phosphorylation: 0.0015 to 30 μg/ml (0.01-200 nM); for agonist effect on c-Met phosphorylation, added alone / antagonist effect on c-Met phosphorylation in presence of HGF: A549, 30 μg/ml (200 nM), Example 18
T1 construct: endogenous in cells; host or cells: A549
T1 sequence (P08581 25-1390): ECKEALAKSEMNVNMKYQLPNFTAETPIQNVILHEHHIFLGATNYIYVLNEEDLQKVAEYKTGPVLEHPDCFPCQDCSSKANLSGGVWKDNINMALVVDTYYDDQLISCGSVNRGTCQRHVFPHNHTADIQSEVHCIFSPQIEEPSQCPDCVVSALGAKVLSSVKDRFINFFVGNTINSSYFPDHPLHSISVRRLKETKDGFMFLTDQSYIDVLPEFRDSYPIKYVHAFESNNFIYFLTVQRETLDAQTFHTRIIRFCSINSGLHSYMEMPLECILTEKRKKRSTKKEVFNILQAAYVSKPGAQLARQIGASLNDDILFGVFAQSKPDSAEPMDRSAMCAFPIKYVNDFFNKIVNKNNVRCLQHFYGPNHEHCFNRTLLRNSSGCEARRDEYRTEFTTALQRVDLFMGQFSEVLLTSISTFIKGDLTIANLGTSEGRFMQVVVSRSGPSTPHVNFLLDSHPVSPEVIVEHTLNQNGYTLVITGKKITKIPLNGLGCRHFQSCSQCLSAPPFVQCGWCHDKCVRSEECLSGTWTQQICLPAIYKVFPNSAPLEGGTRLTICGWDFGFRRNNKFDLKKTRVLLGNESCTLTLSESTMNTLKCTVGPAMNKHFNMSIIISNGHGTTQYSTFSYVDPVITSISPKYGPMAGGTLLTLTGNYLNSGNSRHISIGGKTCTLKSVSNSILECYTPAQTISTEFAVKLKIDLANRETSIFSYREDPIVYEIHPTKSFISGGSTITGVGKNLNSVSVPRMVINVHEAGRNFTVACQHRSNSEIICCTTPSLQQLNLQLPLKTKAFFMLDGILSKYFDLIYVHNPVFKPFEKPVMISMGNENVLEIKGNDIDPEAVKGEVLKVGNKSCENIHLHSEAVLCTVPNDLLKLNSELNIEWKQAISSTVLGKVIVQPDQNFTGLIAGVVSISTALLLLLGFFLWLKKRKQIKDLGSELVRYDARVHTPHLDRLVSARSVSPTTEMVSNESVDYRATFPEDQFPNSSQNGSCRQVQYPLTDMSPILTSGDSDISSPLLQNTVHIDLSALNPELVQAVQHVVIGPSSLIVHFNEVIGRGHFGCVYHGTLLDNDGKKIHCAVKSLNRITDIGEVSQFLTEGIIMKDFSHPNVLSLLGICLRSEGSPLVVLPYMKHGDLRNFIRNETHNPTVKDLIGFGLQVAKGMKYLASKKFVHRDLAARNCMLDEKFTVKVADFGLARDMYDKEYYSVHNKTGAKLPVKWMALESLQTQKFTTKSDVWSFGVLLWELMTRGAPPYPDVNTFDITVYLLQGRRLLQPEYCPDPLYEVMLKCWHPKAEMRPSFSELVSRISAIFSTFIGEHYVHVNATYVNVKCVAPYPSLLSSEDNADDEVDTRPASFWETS
Protocol: To determine the activity of anti-c-Met antibodies on c-Met phosphorylation a phospho c-Met ELISA assay was set-up. Briefly 500 000 A549 cells were seeded in each well of 6-well plates in F12K medium+10% FCS. 16 hours before HGF addition (100 ng/ml), cells were starved and each antibody to be tested was added at a final concentration of 30 μg/ml 15 minutes before ligand stimulation. 15 minutes after HGF addition, cold lysis buffer was added, cells were scraped and cell lysates collected and centrifuged at 13 000 rpm for 10 min at 4° C. Supernatants were quantified with a BCA kit (Pierce) and stored at −20° C. For ELISA assay, a goat anti-c-Met antibody (R&D ref. AF276) was used as a capture antibody (coating overnight at 4° C.) and after a saturation step (1 h at RT) with a TBS-BSA 5% buffer, […] of protein from the different cell lysates was added to each well of the 96-well plate. After a 90 minute-incubation time at RT, plates were washed four times and an anti-phospho-c-Met antibody (Rabbit anti-pY1230-1234-1235 c-Met) was added. After an additional 1 hour incubation time and 4 washes an anti-rabbit-HRP (Biosource) was added for 1 hour at RT and then Luminol substrate was added before evaluation the luminescence with a Mithras device. […] As described in the various examples presented in this patent, this weak basal effect has no consequences on the activity of antibodies in other in vitro and in vivo tests.
In example 3, the effect of anti-c-Met Mabs on phosphorylation was assessed with dosed supernatants from each hybridoma to be evaluated. The test has been performed again with purified 11E1 and 224G11 Mabs that have been evaluated either at a final concentration of 30 μg/ml (200 nM) or at a dose range from 0.0015 to 30 μg/ml (0.01-200 nM) in order to determine the IC50 of each antibody. The protocol used is the same as the one described in example 3.

HUVEC = HUVEC proliferation ([3H]thymidine); type: cell-based; conditions: HGF 20 ng/ml, 0.15 to 40 μg/ml
Protocol: For proliferation experiments, 7500 HUVEC were plated in each well of a 96 well plate previously coated with laminin. Cells were grown 24 hours of EMB-2 assay medium supplemented with 0.5% FBS and heparin. Then, MAbs to be tested (0.15 to 40 μg/ml) were added for 1 h before addition of 20 ng/ml of HGF. After 24 additional hours, cells were pulsed with 0.5 μCi of [^3H] Thymidine. The magnitude of [^3H] Thymidine incorporated was quantified by liquid scintillation counting. In This experiment the 9G4 MAb is an irrelevant antibody used as an IgG1 isotype control.

NCI-H441 [1] = experiment: Established xenograft NCI-H441 tumor model, 224G11 alone or with Navelbine (Example 15); type: in vivo, Swiss nude mice; conditions: 224G11 2 mg loading then 1 mg twice a week i.p.; Navelbine 8 mg/kg i.p. days 5, 12, 19
Protocol: Briefly, NCI-H441 cells from ATCC were routinely cultured in RPMI 1640 medium, 10% FCS and 1% L-Glutamine. Cells were split two days before engraftment so that they were in exponential phase of growth. Ten million NCI-H441 cells were engrafted in PBS to 7 weeks old Swiss nude mice. […] Mice were treated i.p. with a loading dose of 2 mg of 224G11/mouse and then twice a week, for 43 days, with 1 mg of antibody/mouse. The 9G4 MAb was used as an isotype control.
Navelbine® was given by i.p. injections at a dose of 8 mg/kg on days 5, 12, 19 post-cell injection. For combined therapy with both 224G11 and Navelbine®, the two compounds were administered separately. In this experience the 2 compounds were used at their optimal dosage. Tumor volume was measured twice a week and calculated by the formula: p/6×length×width×height.

NCI-H441 [2] = experiment: In vivo combination of 224G11 and Doxorubicin on NCI-H441 xenograft model; set-up: species or system Athymic nude mice; conditions: D11 to D39; Doxorubicin 5 mg/kg i.v.
Protocol: (§1) NCI-H441 cells from ATCC were routinely cultured in RPMI 1640 medium, 10% FCS, 1% L-Glutamine. Cells were split two days before engraftment being in exponential phase of growth. Ten million NCI-H441 cells were engrafted to Athymic nude mice. […] Mice were treated i.p. either with a loading dose of 2 mg of 224G11 Mab/mouse and then twice a week with 1 mg of antibody/mouse or with 4 injections of Doxorubicin (D5, D12, D19, D26) at 5 mg/kg. A third group administered with the combine treatment was also included. Doxorubicin was given by i.v. injections. Tumor volume was measured twice a week and calculated by the formula: π/6×length×width×height and animal weights were monitored every day over the period of Doxorubicin treatment. Statistical analysis was performed at each measured time using either a t-test or a Mann-Whitney test. […] Results are represented in FIG. 46.

NCI-H441 [3] = experiment: In vivo combination of 224G11 and Docetaxel on NCI-H441 xenograft model; set-up: species or system Athymic nude mice; conditions: D11 to D35; Docetaxel 7.5 mg/kg i.p.
Protocol: as §1, with “growth. Nine” for “growth. Ten”, “of Docetaxel” for “of Doxorubicin”, “at 7.5” for “at 5”, “included. Docetaxel” for “included. Doxorubicin”, “by i.p.” for “by i.v.”, “FIG. 47.” for “FIG. 46.”

U87-MG = experiment: In vivo combination of 224G11 and Temozolomide on U87MG xenograft model; set-up: species or system Athymic nude mice; conditions: D22 to D32; Temozolomide 5 mg/kg i.p.
Protocol: U87-MG cells from ATCC were routinely cultured in DMEM medium, 10% FCS, 1% L-Glutamine. Cells were split two days before engraftment being in exponential phase of growth. Five million U87-MG cells were engrafted to Athymic nude mice. […] Mice were treated i.p. either with a loading dose of 2 mg of 224G11 Mab/mouse and then twice a week with 1 mg of antibody/mouse or with 3 injections of Temozolomide (D19, D26, D33) at 5 mg/kg. A third group administered with the combine treatment was also included. Temozolomide was given by i.p. injections. Tumor volume was measured twice a week and calculated by the formula: π/6×length×width×height and animal weights were monitored every day over the period of Temozolomide treatment. Statistical analysis was performed at each measured time using either a t-test or a Mann-Whitney test. […] Results are represented in FIG. 48.

IC50, c-Met phosphorylation (c-Met): nanomolar
agonist effect on c-Met phosphorylation, added alone (c-Met): no agonist effect
antagonist effect on c-Met phosphorylation in presence of HGF (c-Met): 87%
B1: 11E1: murine anti-c-Met monoclonal antibody, IgG1 kappa; heavy chain SEQ ID No. 62, light chain SEQ ID No. 63 (antibody, V domains shown)
VH: QVQLQQSGAELAKPGASVKMSCKASGYTFTSYWMNWVKQRPGQGLEWIGYINPTTGSTDYNQKLKDKATLTADKSSNTAYMQLSSLTSEDSAVYYCAIGGYGSWFAYWGQGTLVTVSA
VL: QIVLTQSPAIMSASPGEKVTLTCSASSSVSSTYLYWYQQKPGSSPKLWIYTTSILASGVPARFSGSGSGTSYSLTISSMETEDAASYFCHQWSSYPFTFGSGTKLDIK
modifications: mus musculus
inhibition of HGF-induced HUVEC proliferation (HUVEC): dramatic dose dependent inhibition

IC50, c-Met phosphorylation (c-Met): nanomolar
agonist effect on c-Met phosphorylation, added alone (c-Met): no agonist effect
antagonist effect on c-Met phosphorylation in presence of HGF (c-Met): 75%
B2: 224G11: murine anti-c-Met monoclonal antibody, IgG1 kappa; heavy chain SEQ ID No. 18, light chain SEQ ID No. 21 (antibody, V domains shown)
VH: EVQLQQSGPELVKPGASVKISCKTSGYIFTAYTMHWVRQSLGESLDWIGGIKPNNGLANYNQKFKGKATLTVDKSSSTAYMDLRSLTSEDSAVYYCARSEITTEFDYWGQGTALTVSS
VL: DIVLTQSPASLAVSLGQRATISCRASESVDSYANSFMHWYQQKPGQPPKLLIYRASNLESGIPARFSGSGSRTDFTLTINPVEADDVATYYCQQSKEDPLTFGSGTKLEMK
modifications: mus musculus
anti-tumor activity (NCI-H441 [1]): as efficient as Navelbine®
anti-tumor activity compared to the control group (NCI-H441 [2]): significant anti-tumor activity
anti-tumor activity compared to the control group (NCI-H441 [3]): significant anti-tumor activity
anti-tumor activity compared to the control group (U87-MG): significant anti-tumor activity
inhibition of HGF-induced HUVEC proliferation (HUVEC): dramatic dose dependent inhibition
